We go through six molecules from patent US20070009989A1, “Synthetic heparanase molecules and uses thereof” (priority 2003, published 2007).

Data set [1] is described as follows: Heparanase enzymatic activity of constructs transiently expressed in COS-7 cells (radiometric or fluorimetric assay). It counts as biochemical. The settings on record: for enzymatic activity: extracted by heparin affinity chromatography; for stability of the construct (conclusion from expression level): expression barely detectable by Western blot. How it is done: Cells were grown in Dulbecco's MEM (Gibco BRL, Gaithersburg, Md.). All constructs were cloned into the eukaryotic expression plasmid pcDNA3 (Invitrogen). A vector encoding the reporter gene β-lactamase (BLA) was co-transfected in order to check transfection efficiency of each construct. […] Transient transfection of COS7 cells was obtained using the fuGENE 6 Transfection Reagent (Roche, Basel, Switzerland) according to manufacturer's instructions. 24 hours after transfection, efficiency was assessed by fluorimetric detection of BLA-positive cells. 96 hours after transfection, cells were harvested and resuspended in lysis buffer (50 mM Tris-HCl pH 7.5, 150 mM NaCl, 0.5% Triton) containing Complete protease inhibitor cocktail (Roche). The lysis was carried out on ice for 30 minutes. After centrifugation at 14000 rpm for 30 minutes, the heparanase containing supernatants were recovered and partially purified as outlined below.
Heparanase constructs were expressed in COS-7 cells, which are devoid of endogenous heparanse activity, by transient transfection. Heparanase was extracted from cell lysates by heparin affinity chromatography and quantified on Western blots. In parallel, heparanase enzymatic activity was determined with either the radiometric or fluorimetric assay (FIG. 5). From Western blot analysis, we concluded that wt heparanase as well as the single chain constructs GS3 and hyaluro are efficiently expressed and processed, whereas constructs 106 and GS4 are expressed but not processed. Expression levels of constructs 109 and GS6 were extremely low and barely detectable by Western blot analysis. […] Since GS3 and hyaluro are active but are processed despite the changes that were introduced in the cleavage sites we can not draw any conclusion with respect to the intrinsic activity of the precursors. We therefore proceeded with the expression in cells that are devoid of the enzyme(s) responsible for heparanase processing.
(§1) Cell lysates from COS7 or Sf9 insect cells were passed through 500 μl Heparin Sepharose CL-6B (Amersham, Piscataway, N.J.) by gravity. The column was washed with 2 ml of lysis buffer, then with 2 ml of 50 mM Tris-HCl pH 7.5, 500 mM NaCl, and heparanase was eluted with 2 ml of 50 mM Tris-HCl pH 7.5, 1 M NaCl and concentrated about 5 fold with a Biomax-30K centrifugal concentrator (Millipore, Bedford, Mass.). 10% glycerol was added and the protein was stored in aliquots at −80° C. Protein concentration was determined using the BIO-RAD Protein Assay.
(§2) This assay is based on the degradation of FITC-HS monitored by HPLC size exclusion chromatography. 8 μl of purified heparanase was incubated with 5 μL of FITC-HS in a 50 μl of 50 mM MES pH 6, 10% glycerol (heparanase activity buffer, HAB). The reaction mixture was incubated at room temperature for a defined period and the reaction was stopped by the addition of 50 μg of heparin. The mixture was then filtered using Ultrafree-MC centrifugal filter Devices (Millipore). 20 μl were injected on a Superdex 75™ (Pharmacia Biotech) column equilibrated in buffer 50 mM Hepes pH 7.5 150 mM Na2SO4 and connected to a Merck-Hitachi HPLC system. Fluorescent heparan sulfate degradation products were detected by an L-7485 fluorescence detector. Heparanase activity was assessed by monitoring the increase in lower molecular weight heparan sulfate species compared with the intact FITC-HS and quantified by peak area integration.
This assay is based on the degradation of tritiated heparan sulfate immobilized on microplate. Each well of the Reacti-Bind Streptavidin High Binding Capacity Coated Plates was pre-treated according to manufacturer's instructions. Initially, different amounts of each fraction of tritiated, biotinylated heparan sulfate obtained after PD-10 desalting column were added to each well (in duplicate) in PBS to a final volume of 100 μl. […]
A general note: Immunoblotting shows a protein as a band on a membrane.

The nature of data set [2]: Heparanase enzymatic activity of constructs expressed in Sf9 insect cells (fluorimetric assay). The settings on record: for pH and ionic strength dependence of the enzymatic activity: compared with wild type enzyme from COS-7 cells or HCT-116 cells; for enzymatic activity of the unprocessed purified protein: expressed in Sf9 cells, compared with correctly processed wild type enzyme from COS-7 cells. The class given is biochemical. Here is the method:
Recombinant baculoviruses containing the heparanase constructs were generated using the Bac to Bac expression system (Invitrogen). Recombinant baculoviruses were used to infect Sf9 insect cells (50×10^6 cells per T-175 flask) grown in Grace's insect medium with 10% FBS. Cells were collected 48 h after infection, and centrifuged at 500 g for 5 minutes. Cell lysates were prepared as above, except the lysis buffer contained 500 mM NaCl instead of the 150 mM used for COS7, which improved protein quantity in the soluble fraction.
The proteins were expressed in Sf9 cells and purified by heparin affinity chromatography.
as §1, §2

B1: hyaluro: single chain heparanase with grafted loop region from hyaluronidase, protein SEQ ID NO:27 (protein)
chain: MLLRSKPALPPPLMLLLLGPLGPLSPGALPRPAQAQDVVDLDFFTQEPLHLVSPSFLSVTIDANLATDPRFLILLGSPKLRTLARGLSPAYLRFGGTKTDFLIFDPKKESTFEERSYWAFKDKTPEWPYQEQLLLREHYQKKFKNSTYSRSSVDVLYTFANCSGLDLIFGLNALLRTADLQWNSSNAQLLLDYCSSKGYNISWELGNEPNSFLKKADIFINGSQLGEDFIQLHKLLRKSTFKNAKLYGPDVGQPRRKTAKMLKSFLKAGGEVIDSVTWHHYYLNGRTATREDFLNPDVLDIFISSVQKVFQVVESTRPGKKVWLGETSSAYGGGAPLLSDTFAAGFMWLDKLGLSARMGIEVVMRQVFFGAGNYHLVDENFDPLPDYWLSLLFKKLVGTKVLMASVQGSKRRKLRVYLHCTNTDNPRYKEGDLTLYAINLHNVTKYLRLPYPFSNKQVDKYLLRPLGPHGLLSKSVQLNGLTLKMVDDQTLPPLMEKPLRPGSSLGLPAFSYSFFVIRNAKVAACI
modifications: hep Hya1
For B1, the enzymatic activity entry in data set [1] was “showed enzymatic activity”. In data set [2], the “pH and ionic strength dependence of the enzymatic activity” value was “undistinguishable from the wild type recombinant enzyme”; the “enzymatic activity of the unprocessed purified protein” value is “highly active”.

B2: 106: single chain heparanase linking the 8 and 50 kDa subunits directly, protein SEQ ID NO:17 (protein)
chain: MLLRSKPALPPPLMLLLLGPLGPLSPGALPRPAQAQDVVDLDFFTQEPLHLVSPSFLSVTIDANLATDPRFLILLGSPKLRTLARGLSPAYLRFGGTKTDFLIFDPKKFKNSTYSRSSVDVLYTFANCSGLDLIFGLNALLRTADLQWNSSNAQLLLDYCSSKGYNISWELGNEPNSFLKKADIFINGSQLGEDFIQLHKLLRKSTFKNAKLYGPDVGQPRRKTAKMLKSFLKAGGEVIDSVTWHHYYLNGRTATREDFLNPDVLDIFISSVQKVFQVVESTRPGKKVWLGETSSAYGGGAPLLSDTFAAGFMWLDKLGLSARMGIEVVMRQVFFGAGNYHLVDENFDPLPDYWLSLLFKKLVGTKVLMASVQGSKRRKLRVYLHCTNTDNPRYKEGDLTLYAINLHNVTKYLRLPYPFSNKQVDKYLLRPLGPHGLLSKSVQLNGLTLKMVDDQTLPPLMEKPLRPGSSLGLPAFSYSFFVIRNAKVAACI
modifications: hep 106
For B2, the enzymatic activity result in data set [1] was “inactive”.

B3: GS6: single chain heparanase, subunits linked via (GS)6 spacer, protein SEQ ID NO:26 (protein)
chain: MLLRSKPALPPPLMLLLLGPLGPLSPGALPRPAQAQDVVDLDFFTQEPLHLVSPSFLSVTIDANLATDPRFLILLGSPKLRTLARGLSPAYLRFGGTKTDFLIFDPKKEGSGSGSGSGSGSKKFKNSTYSRSSVDVLYTFANCSGLDLIFGLNALLRTADLQWNSSNAQLLLDYCSSKGYNISWELGNEPNSFLKKADIFINGSQLGEDFIQLHKLLRKSTFKNAKLYGPDVGQPRRKTAKMLKSFLKAGGEVIDSVTWHHYYLNGRTATREDFLNPDVLDIFISSVQKVFQVVESTRPGKKVWLGETSSAYGGGAPLLSDTFAAGFMWLDKLGLSARMGIEVVMRQVFFGAGNYHLVDENFDPLPDYWLSLLFKKLVGTKVLMASVQGSKRRKLRVYLHCTNTDNPRYKEGDLTLYAINLHNVTKYLRLPYPFSNKQVDKYLLRPLGPHGLLSKSVQLNGLTLKMVDDQTLPPLMEKPLRPGSSLGLPAFSYSFFVIRNAKVAACI
modifications: hep GS-A6
In the case of B3, the “stability of the construct (conclusion from expression level)” value in data set [1] is “probably unstable”.

B4: 109: single chain heparanase linking the 8 and 50 kDa subunits directly, protein SEQ ID NO:20 (protein)
chain: MLLRSKPALPPPLMLLLLGPLGPLSPGALPRPAQAQDVVDLDFFTQEPLHLVSPSFLSVTIDANLATDPRFLILLGSPKLRTLARGLSPAYLRFGGTKTDFLIFDPKKEKKFKNSTYSRSSVDVLYTFANCSGLDLIFGLNALLRTADLQWNSSNAQLLLDYCSSKGYNISWELGNEPNSFLKKADIFINGSQLGEDFIQLHKLLRKSTFKNAKLYGPDVGQPRRKTAKMLKSFLKAGGEVIDSVTWHHYYLNGRTATREDFLNPDVLDIFISSVQKVFQVVESTRPGKKVWLGETSSAYGGGAPLLSDTFAAGFMWLDKLGLSARMGIEVVMRQVFFGAGNYHLVDENFDPLPDYWLSLLFKKLVGTKVLMASVQGSKRRKLRVYLHCTNTDNPRYKEGDLTLYAINLHNVTKYLRLPYPFSNKQVDKYLLRPLGPHGLLSKSVQLNGLTLKMVDDQTLPPLMEKPLRPGSSLGLPAFSYSFFVIRNAKVAACI
modifications: hep 109
For B4, in data set [1], the “stability of the construct (conclusion from expression level)” value is recorded as “probably unstable”.

B5: GS3: single chain heparanase, subunits linked via (GS)3 glycine-serine spacer, protein SEQ ID NO:21 (protein)
chain: MLLRSKPALPPPLMLLLLGPLGPLSPGALPRPAQAQDVVDLDFFTQEPLHLVSPSFLSVTIDANLATDPRFLILLGSPKLRTLARGLSPAYLRFGGTKTDFLIFDPKKEGSGSGSKKFKNSTYSRSSVDVLYTFANCSGLDLIFGLNALLRTADLQWNSSNAQLLLDYCSSKGYNISWELGNEPNSFLKKADIFINGSQLGEDFIQLHKLLRKSTFKNAKLYGPDVGQPRRKTAKMLKSFLKAGGEVIDSVTWHHYYLNGRTATREDFLNPDVLDIFISSVQKVFQVVESTRPGKKVWLGETSSAYGGGAPLLSDTFAAGFMWLDKLGLSARMGIEVVMRQVFFGAGNYHLVDENFDPLPDYWLSLLFKKLVGTKVLMASVQGSKRRKLRVYLHCTNTDNPRYKEGDLTLYAINLHNVTKYLRLPYPFSNKQVDKYLLRPLGPHGLLSKSVQLNGLTLKMVDDQTLPPLMEKPLRPGSSLGLPAFSYSFFVIRNAKVAACI
modifications: hep GS3
As for B5, the enzymatic activity result in data set [1] is “showed enzymatic activity”. For the same molecule, in data set [2], the “pH and ionic strength dependence of the enzymatic activity” value is recorded as “undistinguishable from the wild type recombinant enzyme”; the “enzymatic activity of the unprocessed purified protein” value is “highly active”.

B6: GS4: single chain heparanase, W118-(GS)4-E143 spacer, protein SEQ ID NO:25 (protein)
chain: MLLRSKPALPPPLMLLLLGPLGPLSPGALPRPAQAQDVVDLDFFTQEPLHLVSPSFLSVTIDANLATDPRFLILLGSPKLRTLARGLSPAYLRFGGTKTDFLIFDPKKESTFEERSYWGSGAGSGAEWPYQEQLLLREHYQKKFKNSTYSRSSVDVLYTFANCSGLDLIFGLNALLRTADLQWNSSNAQLLLDYCSSKGYNISWELGNEPNSFLKKADIFINGSQLGEDFIQLHKLLRKSTFKNAKLYGPDVGQPRRKTAKMLKSFLKAGGEVIDSVTWHHYYLNGRTATREDFLNPDVLDIFISSVQKVFQVVESTRPGKKVWLGETSSAYGGGAPLLSDTFAAGFMWLDKLGLSARMGIEVVMRQVFFGAGNYHLVDENFDPLPDYWLSLLFKKLVGTKVLMASVQGSKRRKLRVYLHCTNTDNPRYKEGDLTLYAINLHNVTKYLRLPYPFSNKQVDKYLLRPLGPHGLLSKSVQLNGLTLKMVDDQTLPPLMEKPLRPGSSLGLPAFSYSFFVIRNAKVAACI
modifications: hep GS-A4
B6: the enzymatic activity entry in data set [1] is “inactive”.
